Reference: patent publication EP4806514A2 (Lepu Biopharma Co., Ltd., dated 2025)

T1: human CDH17, full length, expressed on cells (HEK293-hCDH17); AsPC-1, HCT-8, AGS, LoVo, KATO III, HT-29 tumor … (human, UniProt Q12864 23-832)
T1 construct: also called human CDH17 expressed on tumor cells
T1 sequence: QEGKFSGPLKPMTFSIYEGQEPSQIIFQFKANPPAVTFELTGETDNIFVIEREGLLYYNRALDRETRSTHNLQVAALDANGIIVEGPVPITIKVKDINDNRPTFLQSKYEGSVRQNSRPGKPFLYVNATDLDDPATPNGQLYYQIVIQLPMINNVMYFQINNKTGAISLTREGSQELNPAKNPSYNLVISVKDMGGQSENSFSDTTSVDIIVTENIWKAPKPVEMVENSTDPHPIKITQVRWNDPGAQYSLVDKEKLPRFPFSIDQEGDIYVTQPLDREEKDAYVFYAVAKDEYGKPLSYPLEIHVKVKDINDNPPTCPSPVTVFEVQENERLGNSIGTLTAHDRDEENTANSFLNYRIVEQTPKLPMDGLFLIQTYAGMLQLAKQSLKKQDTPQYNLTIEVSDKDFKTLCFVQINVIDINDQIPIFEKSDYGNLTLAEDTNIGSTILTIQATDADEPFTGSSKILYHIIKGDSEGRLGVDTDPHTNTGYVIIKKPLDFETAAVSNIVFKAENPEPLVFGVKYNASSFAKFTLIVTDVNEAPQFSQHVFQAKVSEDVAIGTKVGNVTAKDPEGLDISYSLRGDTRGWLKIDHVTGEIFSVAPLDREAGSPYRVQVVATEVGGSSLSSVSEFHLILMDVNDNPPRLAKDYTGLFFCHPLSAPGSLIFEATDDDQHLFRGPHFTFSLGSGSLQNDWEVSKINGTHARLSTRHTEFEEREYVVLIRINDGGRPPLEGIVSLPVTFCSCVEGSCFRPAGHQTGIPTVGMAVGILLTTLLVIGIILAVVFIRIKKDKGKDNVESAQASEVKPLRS

T2: hCDH17-his (full length extracellular domain of human CDH17, Q23-M787, his tag at the C-terminal) (human, UniProt Q12864 23-787)
T2 construct: Limits of the construct (UniProt Q12864, Q23-M787, C-terminal his tag); also called human CDH17-his protein; human CDH17 protein
T2 sequence: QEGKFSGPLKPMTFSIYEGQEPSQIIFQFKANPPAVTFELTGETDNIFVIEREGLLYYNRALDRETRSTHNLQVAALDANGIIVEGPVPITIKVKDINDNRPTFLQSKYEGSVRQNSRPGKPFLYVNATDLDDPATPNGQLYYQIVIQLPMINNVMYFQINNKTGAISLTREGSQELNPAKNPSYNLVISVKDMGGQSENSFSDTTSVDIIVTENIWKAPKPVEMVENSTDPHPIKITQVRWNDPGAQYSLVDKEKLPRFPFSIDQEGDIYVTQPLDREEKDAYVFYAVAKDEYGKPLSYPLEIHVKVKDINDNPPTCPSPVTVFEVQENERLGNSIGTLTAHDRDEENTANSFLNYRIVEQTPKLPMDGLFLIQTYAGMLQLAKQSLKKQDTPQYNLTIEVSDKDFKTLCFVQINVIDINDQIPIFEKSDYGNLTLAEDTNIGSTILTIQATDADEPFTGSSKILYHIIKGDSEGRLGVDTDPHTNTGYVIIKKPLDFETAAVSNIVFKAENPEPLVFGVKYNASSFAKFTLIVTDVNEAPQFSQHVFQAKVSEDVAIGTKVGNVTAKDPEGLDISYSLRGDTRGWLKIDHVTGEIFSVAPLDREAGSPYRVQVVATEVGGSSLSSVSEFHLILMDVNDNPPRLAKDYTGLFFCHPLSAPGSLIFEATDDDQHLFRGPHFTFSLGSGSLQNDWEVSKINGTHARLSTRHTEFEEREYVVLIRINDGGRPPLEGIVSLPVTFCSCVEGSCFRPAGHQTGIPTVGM


Tests used:
[1] = target: T1, human CDH17, full length, expressed on …; assay: flow cytometry, HEK293-hCDH17 cells
[2] = target: T2, hCDH17-his (full length extracellular …); assay: SPR (Biacore 8K), antibody captured on Protein A chip, hCDH17-his injected
[3] = target: T2, hCDH17-his (full length extracellular …); assay: SPR (Biacore 8K), two doses, antibody captured on Protein A chip, hCDH17-his at 25 nM and 100 nM

Binder	binding result [1]	binding result [2]	binding result [3]
61C7F12-z2 (antibody, V domains shown, Humanized, human IgG1 constant region; also called 61C7F12 HU-VH1-0 / HU-VL1-1) VH: EVQLVESGGGLVKPGGSLRLSCAASGFTFSSYAMSWVRQAPGKGLEWVSTINIGGSYTYYPDSVKGRFTISRDNAKNSLYLQMNSLRAEDTAVYYCARQEGRYWYFDVWGQGTTVTVSS VL: DIQLTQSPSFLSASVGDRVTITCTASSSVSSSYLHWYQQKPGKAPKLWIYSTSNLASGVPSRFSGSGSGTEYTLTISSLQPEDFATYYCHQFHRSPYTFGGGTKVEIK	binds	binds	–
61C7F12-z9 (antibody, V domains shown, Humanized, human IgG1 constant region; also called 61C7F12 HU-VH1-0 / HU-VL2-0) VH: EVQLVESGGGLVKPGGSLRLSCAASGFTFSSYAMSWVRQAPGKGLEWVSTINIGGSYTYYPDSVKGRFTISRDNAKNSLYLQMNSLRAEDTAVYYCARQEGRYWYFDVWGQGTTVTVSS VL: EIVLTQSPGTLSLSPGERATLSCTASSSVSSSYLHWYQQKPGQAPRLLIYSTSNLASGIPDRFSGSGSGTDFTLTISRLEPEDFAVYYCHQFHRSPYTFGGGTKVEIK	binds	binds	–
61C7F12-z8 (antibody, V domains shown, Humanized, human IgG1 constant region; also called 61C7F12 HU-VH1-1 / HU-VL1-3) VH: EVQLVESGGGLVKPGGSLRLSCAASGFTFSSYAMSWVRQAPGKGLEWVATINIGGSYTYYPDSVKGRFTISRDNAKNSLYLQMNSLRAEDTAVYYCARQEGRYWYFDVWGQGTTVTVSS VL: QIVLTQSPSFLSASVGDRVTITCTASSSVSSSYLHWYQQKPGKSPKLWIYSTSNLASGVPSRFSGSGSGTSYSLTISSLQPEDFATYYCHQFHRSPYTFGGGTKVEIK	binds	binds	–
61C7F12-z6 (antibody, V domains shown, Humanized, human IgG1 constant region; also called 61C7F12 HU-VH1-1 / HU-VL1-1) VH: EVQLVESGGGLVKPGGSLRLSCAASGFTFSSYAMSWVRQAPGKGLEWVATINIGGSYTYYPDSVKGRFTISRDNAKNSLYLQMNSLRAEDTAVYYCARQEGRYWYFDVWGQGTTVTVSS VL: DIQLTQSPSFLSASVGDRVTITCTASSSVSSSYLHWYQQKPGKAPKLWIYSTSNLASGVPSRFSGSGSGTEYTLTISSLQPEDFATYYCHQFHRSPYTFGGGTKVEIK	binds	–	–
61C7F12-z4 (antibody, V domains shown, Humanized, human IgG1 constant region; also called 61C7F12 HU-VH1-0 / HU-VL1-3) VH: EVQLVESGGGLVKPGGSLRLSCAASGFTFSSYAMSWVRQAPGKGLEWVSTINIGGSYTYYPDSVKGRFTISRDNAKNSLYLQMNSLRAEDTAVYYCARQEGRYWYFDVWGQGTTVTVSS VL: QIVLTQSPSFLSASVGDRVTITCTASSSVSSSYLHWYQQKPGKSPKLWIYSTSNLASGVPSRFSGSGSGTSYSLTISSLQPEDFATYYCHQFHRSPYTFGGGTKVEIK	binds	–	–
29H8D3-z12p1 (antibody, V domains shown, PTM-removed variant of 29H8D3-z12) VH: QVQLVQSGAEVKKPGASVKVSCKASGYTFTDHTIHWMRQRPGQGLEWIGYIYPREGYTKYNEKFKDRATLTADTSTSTAYMELRSLRSDDTAVYYCARFYYGYWYFDVWGQGTTVTVSS VL: DIVMTQSPLSLPVTPGEPASISCRSSKSLLRSNGNTYLYWFLQKPGQSPQVLIYRMSNLASGVPDRFSGSGSGTDFTLKISRVEAEDVGVYYCMQHLEYPFTFGQGTKLEIK	–	–	binds
29D2D7-z19 (antibody, V domains shown, Humanized, human IgG1 constant region) VH: QVQLVQSGAEVKKPGASVKVSCKASGYTFTDYDMHWVKQAPGQGLEWIGGFDPESAGTVYNLRFKDKATLTADKSTSTAYMELRSLRSEDTAVYYCARKGYYSVSSPFTYWGQGTLVTVSS VL: not shown	binds	binds	–

Continued, values first:

binding result [1]	binding result [2]	binding result [3]	Binder
binds	–	–	61C7F12-z5 (antibody, V domains shown, Humanized, human IgG1 constant region; also called 61C7F12 HU-VH1-1 / HU-VL1-0) VH: EVQLVESGGGLVKPGGSLRLSCAASGFTFSSYAMSWVRQAPGKGLEWVATINIGGSYTYYPDSVKGRFTISRDNAKNSLYLQMNSLRAEDTAVYYCARQEGRYWYFDVWGQGTTVTVSS VL: DIQLTQSPSFLSASVGDRVTITCTASSSVSSSYLHWYQQKPGKAPKLLIYSTSNLASGVPSRFSGSGSGTEFTLTISSLQPEDFATYYCHQFHRSPYTFGGGTKVEIK
binds	binds	–	61C7F12-z3 (antibody, V domains shown, Humanized, human IgG1 constant region; also called 61C7F12 HU-VH1-0 / HU-VL1-2) VH: EVQLVESGGGLVKPGGSLRLSCAASGFTFSSYAMSWVRQAPGKGLEWVSTINIGGSYTYYPDSVKGRFTISRDNAKNSLYLQMNSLRAEDTAVYYCARQEGRYWYFDVWGQGTTVTVSS VL: DIVLTQSPSFLSASVGDRVTITCTASSSVSSSYLHWYQQKPGKSPKLWIYSTSNLASGVPSRFSGSGSGTEYSLTISSLQPEDFATYYCHQFHRSPYTFGGGTKVEIK
binds	binds	–	61C7F12-z10 (antibody, V domains shown, Humanized, human IgG1 constant region; also called 61C7F12 HU-VH1-1 / HU-VL2-0) VH: EVQLVESGGGLVKPGGSLRLSCAASGFTFSSYAMSWVRQAPGKGLEWVATINIGGSYTYYPDSVKGRFTISRDNAKNSLYLQMNSLRAEDTAVYYCARQEGRYWYFDVWGQGTTVTVSS VL: EIVLTQSPGTLSLSPGERATLSCTASSSVSSSYLHWYQQKPGQAPRLLIYSTSNLASGIPDRFSGSGSGTDFTLTISRLEPEDFAVYYCHQFHRSPYTFGGGTKVEIK
binds	binds	–	61C7F12-z1 (antibody, V domains shown, Humanized, human IgG1 constant region; also called 61C7F12 HU-VH1-0 / HU-VL1-0) VH: EVQLVESGGGLVKPGGSLRLSCAASGFTFSSYAMSWVRQAPGKGLEWVSTINIGGSYTYYPDSVKGRFTISRDNAKNSLYLQMNSLRAEDTAVYYCARQEGRYWYFDVWGQGTTVTVSS VL: DIQLTQSPSFLSASVGDRVTITCTASSSVSSSYLHWYQQKPGKAPKLLIYSTSNLASGVPSRFSGSGSGTEFTLTISSLQPEDFATYYCHQFHRSPYTFGGGTKVEIK
binds	–	–	61C7F12-z7 (antibody, V domains shown, Humanized, human IgG1 constant region; also called 61C7F12 HU-VH1-1 / HU-VL1-2) VH: EVQLVESGGGLVKPGGSLRLSCAASGFTFSSYAMSWVRQAPGKGLEWVATINIGGSYTYYPDSVKGRFTISRDNAKNSLYLQMNSLRAEDTAVYYCARQEGRYWYFDVWGQGTTVTVSS VL: DIVLTQSPSFLSASVGDRVTITCTASSSVSSSYLHWYQQKPGKSPKLWIYSTSNLASGVPSRFSGSGSGTEYSLTISSLQPEDFATYYCHQFHRSPYTFGGGTKVEIK
binds	binds	–	69E3H11-z12 (antibody, V domains shown, Humanized, human IgG1 constant region; also called 69E3H11 HU-VH1-3 / HU-VL2-0) VH: QVQLVQSGAEVKKPGASVKVSCKASGYTFTTYWMHWVKQAPGQRLEWIGEIDPSDSYANYNQKFKGKATLTVDKSASTAYMELSSLRSEDTAVYYCALYYGYGDWGQGTTVTVSS VL: EIVLTQSPGTLSLSPGERATLSCSVSSSISSIHLHWYQQKPGQAPRLLIYRTSNLASGIPDRFSGSGSGTDFTLTISRLEPEDFAVYYCQQGSNLPLTFGQGTRLEIK
binds	–	–	69E3H11-z10 (antibody, V domains shown, Humanized, human IgG1 constant region; also called 69E3H11 HU-VH1-3 / HU-VL1-0) VH: QVQLVQSGAEVKKPGASVKVSCKASGYTFTTYWMHWVKQAPGQRLEWIGEIDPSDSYANYNQKFKGKATLTVDKSASTAYMELSSLRSEDTAVYYCALYYGYGDWGQGTTVTVSS VL: EIVLTQSPDFQSVTPKEKVTITCSVSSSISSIHLHWYQQKPDQSPKLLIKRTSNLASGVPSRFSGSGSGTDFTLTINSLEAEDAATYYCQQGSNLPLTFGQGTRLEIK
–	–	binds	29H8D3-z12p9 (antibody, V domains shown, PTM-removed variant of 29H8D3-z12) VH: QVQLVQSGAEVKKPGASVKVSCKASGYTFTDHTIHWMRQRPGQGLEWIGYIYPRDGYTKYNEKFKDRATLTADTSTSTAYMELRSLRSDDTAVYYCARFYYGYWYFDVWGQGTTVTVSS VL: DIVMTQSPLSLPVTPGEPASISCRSSKSLLRSNGNTYLYWFLQKPGQSPQVLIYRMSNLASGVPDRFSGSGSGTDFTLKISRVEAEDVGVYYCHQHLEYPFTFGQGTKLEIK
